This series can be described thus: protein stability index of a GFP-peptide fusion (GPS, HEK-293T) (PSI 1-6); higher = more stable.
[1] abbreviates: treatment: DMSO, c terminus: a fixed tail appended.
[2] abbreviates: treatment: MLN4924 1 uM, 8 h, c terminus: a fixed tail appended.

± gives the standard deviation.
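Also: 24-mer peptide tiles fused after GFP, lentivirally expressed, FACS-sorted into six equal bins by GFP/DsRed ratio, decoded by Illumina sequencing, PSI is the read-weighted mean bin number.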

For AADGPTVCCNPYHFSRLCGPESPP [SMAD6], the protein stability index by setting is: under setting [1], 3.65 ± 0.11; under setting [2], 3.76 ± 0.24.
Consider AAIAFTLALFSHLVNHVNIRLQAE [SMG5], for which the protein stability index under setting [1] turned out to be 3.22 ± 0.4 and the protein stability index under setting [2] is 3.46 ± 0.37.
Regarding AANPRPDALMKEQLVEMTGLSPRV [ISL2], the protein stability index is, setting by setting: under setting [1], 4.17 ± 0.27; under setting [2], 4.19 ± 0.33.
In the same order, the values of AAPEGKRSLANGPNAGEQPGQVAG [EID1] are 5.44 ± 0.38 and 5.22 ± 0.16.
As for AAPWPMAFPYQYPPPPHPYNPHPG [DVL3], the protein stability index was 2.62 ± 0.26 under setting [1] and 2.85 ± 0.21 under setting [2].
In the same order, the values of AAQNGDESSTRLLLEKNASVNEVD [RIPK4] are 5.37 ± 0.24 and 5.48 ± 0.27.
In the case of ACPVCSKMVPRYDLNRHLDEMCAN [FAN1], the protein stability index turned out to be 2.6 ± 0.49 under setting [1] and 2.27 ± 0.17 under setting [2].
The corresponding values for ADEDDDRDVALQIHFTLIQAFCCE [GADD45A] are 2.28 ± 0.35 and 2.36 ± 0.085.
Take ADILAGREDNSGSDVLIGDILVLL [SLC35F2]: the protein stability index by setting is: under setting [1], 2.48 ± 0.26; under setting [2], 2.43 ± 0.18.
The corresponding values for AEALGKLLQQNKSIQSLTLEWNSL [LRRC45] are 2.13 ± 0.16 and 2.25 ± 0.32.
The corresponding values for AECFRIFDRNADGYIDPEELAEIF [TNNC2] are 5.32 ± 0.21 and 5.09 ± 0.15.
With AEDGGAYLATAKVLITVEDVNDNS [PCDHGA10], the protein stability index was 4.4 ± 0.21 under setting [1] and 4.36 ± 0.29 under setting [2].
Take AEDWFFSKTEELNREVATNSELVQ [KRT17]: the protein stability index is, setting by setting: under setting [1], 4.87 ± 0.2; under setting [2], 4.84 ± 0.07.
Consider AELHAHGPAAFVDYFERNWEPRRD [ZSWIM9], for which the protein stability index is, setting by setting: under setting [1], 3.89 ± 0.3; under setting [2], 4.07 ± 0.23.
For the sequence AEQEALTGECKELEKKNEALKERA [ATF4], the protein stability index stood at 5.3 ± 0.28 under setting [1] and 5.28 ± 0.27 under setting [2].
Consider AERLEVSVDGLTLSPDPEERPGAE [ACBD3], for which the protein stability index is 5.29 ± 0.45 under setting [1] and 5.56 ± 0.3 under setting [2].
In the same order, the values of AEVSWEPGRREGCDICAGKAGCPI [RPS21] are 3.29 ± 0.31 and 3.89 ± 0.26.
AEVVKIRDSFSNQNTETKDTKSR [DLC1] showed a protein stability index (treatment: DMSO, c terminus: native) of 2.89 ± 0.56 and a protein stability index (treatment: MLN4924 1 uM, 8 h, c terminus: native) of 3.47 ± 0.74.
With AFASTCLLSRFSVGIFHLMQIAVP [TMEM175], the protein stability index is, setting by setting: under setting [1], 3.02 ± 0.29; under setting [2], 3 ± 0.22.
In the same order, the values of AFFKRTIQGNIEYSCPATNECEIT [ESRRG] are 3.11 ± 0.25 and 3.23 ± 0.27.
Take AFSQAISAIQALRSSVSRVFDCLK [MED27]: the protein stability index under setting [1] is 3.69 ± 0.36 and the protein stability index under setting [2] was found to be 3.41 ± 0.15.
The corresponding values for AGFAQLTHLLMGLAGGKLILSLEG [HDAC6] are 3.56 ± 0.82 and 3.05 ± 0.82.
The corresponding values for AGGDVPHKTHQAPASASSLPGTGA [DYRK1B] are 4.89 ± 0.099 and 4.87 ± 0.28.
The corresponding values for AGGTSDDPEPSGPHLPRVMLPGVL [SCNN1D] are 4.14 ± 0.21 and 4.16 ± 0.13.
AGILSNLTCNNYKNKMMVCQVGGI [CTNNB1]: the protein stability index was 2.17 ± 0.3 under setting [1] and 2.11 ± 0.37 under setting [2].
Take AGLEDEDVIIEVNGVNVLDEPYEK [PDZK1]: the protein stability index is, setting by setting: under setting [1], 5.05 ± 0.35; under setting [2], 5 ± 0.27.
The sequence AHELGHSLGLSHSTDIGALMYPSY [MMP1] displayed a protein stability index under setting [1] of 3.14 ± 0.18 and a protein stability index under setting [2] of 2.9 ± 0.14.
As to AHRIAAQTLLGTAKMLLHEGQHPA [PYCR3], the protein stability index worked out at 2.97 ± 0.31 under setting [1] and 2.95 ± 0.42 under setting [2].
Consider AILFTRQDLCGVSTCDTLGMADVG [ADAMTS4], for which the protein stability index is, setting by setting: under setting [1], 1.8 ± 0.28; under setting [2], 2.66 ± 0.22.
In the same order, the values of AIMNALIEAGAHMDATNAFKKTAY [FEM1A] are 2.51 ± 0.39 and 2.11 ± 0.35.
Regarding AIPYLEHIIHVWEETGSRFHNCLI [VPS39], the protein stability index reads like this: under setting [1], 2.31 ± 0.4; under setting [2], 2.36 ± 0.54.
Consider AKLGTQAEKDRRLKKKHQLLEDAR [PPFIA4], for which the protein stability index stood at 4.26 ± 0.37 under setting [1] and 4.44 ± 0.1 under setting [2].
For AKVDGETASDSESRAESAPLPVSA [CDS2], the protein stability index was 5.57 ± 0.15 under setting [1] and 5.5 ± 0.27 under setting [2].
The corresponding values for ALAVKAGHGYDSKKQQELTAAVLG [ZBED1] are 3.82 ± 0.24 and 3.87 ± 0.25.
In the same order, the values of ALDKQHSRDSAAITHSTYSLPASS [NOL4L] are 4.57 ± 0.065 and 4.5 ± 0.065.
In the same order, the values of ALIICYNWLHRRLAGQFLEELRKF [MOG] are 2.64 ± 0.65 and 2.47 ± 0.57.
Turning to ALKYWKKAMNMRYSDRTNIISKPV [FEM1C], the protein stability index runs as follows: under setting [1], 2.5 ± 0.52; under setting [2], 2.28 ± 0.31.
The corresponding values for ALPIATAFTEYVHAYFRGHSPSCL [FCHO1] are 2.73 ± 0.55 and 2.78 ± 0.57.
For the sequence ALTRLERHLERKAWVANFERPRMN [CRY1], the protein stability index was 2.42 ± 0.048 under setting [1] and 2.66 ± 0.6 under setting [2].
For the sequence ANETYENNFDNLDFDLDLVPWESD [ATF6], the protein stability index was 5.07 ± 0.24 under setting [1] and 4.82 ± 0.23 under setting [2].
For the sequence ANPYWTSRGSSVSMSGGRFRCPTC [TRIM63], the protein stability index is, setting by setting: under setting [1], 2.65 ± 0.47; under setting [2], 3.1 ± 0.4.
In the same order, the values of APELLGGAEPGTYLTGTINGDPES [ADAMTS4] are 5.73 ± 0.28 and 5.51 ± 0.36.
On to APNSLSAPTMLHNSSGDFSQAHST [TRAF3IP2], for which the protein stability index is 4.84 ± 0.14 under setting [1] and 4.78 ± 0.28 under setting [2].
For the sequence APRTSSCAERLQSEEQVSKNLFGP [FCHO1], the protein stability index is, setting by setting: under setting [1], 4.21 ± 0.17; under setting [2], 4.17 ± 0.31.
As for AQKTALLQDGRRKVHYLFPDGKEM [DPCD], the protein stability index under setting [1] worked out at 3.29 ± 0.22 and the protein stability index under setting [2] came to 3.62 ± 0.23.
The corresponding values for ARKAMRNGISPIIIDNTNLHAWEM [N4BP2L1] are 2.33 ± 0.25 and 2.25 ± 0.42.
As for ARYGHLDMVEFLLEQCSASIEVGG [FEM1C], the protein stability index came out at 2.48 ± 0.5 under setting [1] and 2.14 ± 0.36 under setting [2].
As to ASAAARLGCNRQSWCLKRYDLEYW [TRIM14], the protein stability index under setting [1] is 2.29 ± 0.7 and the protein stability index under setting [2] came to 1.86 ± 0.27.
For the sequence ASALTLVLGGRRLRRAWFSWPRAS [SCNN1D], the protein stability index under setting [1] amounted to 2.13 ± 0.39 and the protein stability index under setting [2] stood at 2.05 ± 0.28.
With ASCSKNCTNSPAIVRFSGQSRGVP [FBXO34], the protein stability index runs as follows: under setting [1], 3.68 ± 0.27; under setting [2], 3.63 ± 0.25.
In the same order, the values of ASDYFKAMFTGGMKEQDLMCIKLH [KLHL13] are 2.13 ± 0.17 and 2.13 ± 0.25.
As for ASIQNHVRKREAPAPEAESKQTEK [EFHC1], the protein stability index by setting is: under setting [1], 5.36 ± 0.28; under setting [2], 5.32 ± 0.37.
As to ASQSLGSPMYFFLASLSFIDTVYS [OR4A15], the protein stability index was determined as 2.89 ± 0.57 under setting [1] and 2.67 ± 0.96 under setting [2].
Sequence ATDYLRYKPVVLLQGLSLIVTWFM [SLC19A2] returned a protein stability index under setting [1] of 2.35 ± 0.12 and a protein stability index under setting [2] of 2.42 ± 0.19.
Sequence ATFSGFKKEQRRLGIPKNPWLWSE [ETS2] came in with a protein stability index under setting [1] of 2.28 ± 0.18 and a protein stability index under setting [2] of 2.57 ± 0.52.
In the case of ATRSTTQSNRTSRLIGKKMNRSVS [WEE1], the protein stability index reads like this: under setting [1], 4.27 ± 0.28; under setting [2], 4.21 ± 0.3.
Consider AVFMWPGKDSRWLPSLVLARLVFV [SLC29A1], for which the protein stability index stood at 3.25 ± 0.68 under setting [1] and 2.67 ± 0.34 under setting [2].
On to AVPKFMKRIKVPDYKDRSVFGVPL [DLC1], for which the protein stability index is, setting by setting: under setting [1], 2.33 ± 0.15; under setting [2], 2.4 ± 0.25.
The corresponding values for CAFLLLRLLVGLALATLRVLRGLA [TMEM175] are 3.56 ± 0.37 and 3.35 ± 0.086.
As for CAIQMFSFLFLGCSHSFLLAVMGY [OR10K2], the protein stability index is, setting by setting: under setting [1], 3.41 ± 0.14; under setting [2], 3.46 ± 0.37.
For CEKTFNRKDHLKNHLQTHDPNKMA [PLAGL1], the protein stability index is, setting by setting: under setting [1], 4.31 ± 0.26; under setting [2], 4.42 ± 0.16.
Regarding CGCGSFCRLGYGCGYEGCRYGCGH [KRTAP19-2], the protein stability index reads like this: under setting [1], 2.55 ± 0.44; under setting [2], 2.62 ± 0.46.
In the same order, the values of CGRAFSRKSLLVVHQRTHTGEKPH [ZNF649] are 2.69 ± 0.26 and 2.64 ± 0.093.
Consider CGRRGIKVWSLTGQVAEDRFPESH [TLE6], for which the protein stability index runs as follows: under setting [1], 2.79 ± 0.27; under setting [2], 3.11 ± 0.16.
Turning to CHLFSTYVASHKIEKEEQEKKRKE [ACBD3], the protein stability index under setting [1] amounted to 4.41 ± 0.41 and the protein stability index under setting [2] was 4.43 ± 0.21.
CHSESGKSRLVQLPPVAVRSLQDL [PCMTD2]: the protein stability index is, setting by setting: under setting [1], 3.44 ± 0.33; under setting [2], 3.28 ± 0.28.
As for CKKLHIPLKAQNDLDISRIKRGNT [P2RY14], the protein stability index was 3.44 ± 0.33 under setting [1] and 3.65 ± 0.14 under setting [2].
Take CLDTIDKSTMDAISAEGFTDIDID [BTBD1]: the protein stability index runs as follows: under setting [1], 4.88 ± 0.19; under setting [2], 4.82 ± 0.22.
As to CMWSKKCSGVACLVKDNPQRSYFL [WASL], the protein stability index is, setting by setting: under setting [1], 2.26 ± 0.29; under setting [2], 2.04 ± 0.27.
On to CPEVKLKTTGLEEAAEAETAKDNG [SRPK2], for which the protein stability index came to 5.5 ± 0.27 under setting [1] and 5.49 ± 0.26 under setting [2].
For the sequence CQRERAFSVKFEVQAPRWGNPRAL [OAS1], the protein stability index turned out to be 2.46 ± 0.12 under setting [1] and 2.8 ± 0.27 under setting [2].
Regarding CRALRDPALDSLAYEYEREGLYEQ [TRADD], the protein stability index is, setting by setting: under setting [1], 3.73 ± 0.34; under setting [2], 3.63 ± 0.18.

These data come from the supplement of paper PMC10567573.
